PMC5925078

Experiments:
[1] = target: TNFR2 ECD (Homo sapiens) (UniProt P20333); experiment: SPR; details: cited from earlier work
[2] = target: TNFR1 ECD (Homo sapiens) (UniProt P19438); experiment: SPR; details: cited from earlier work
[3] = target: membrane TNF (UniProt P01375); experiment: cellular binding study with GpL (luciferase) fusion protein; reciprocal competition; memTNF-expressing HEK293 transfectants incubated 90 min with 100 ng/ml TNFR1ed-GpL or TNFR2ed-GpL, alone or mixed with 2,000 ng/ml sTNF or 2,000 ng/ml PGRNAdi; EV transfectants as non-specific binding

| specific binding, fold over background (the pair that is blocked) [3] | Substance | Kd [1] | Kd [2] |
| --- | --- | --- | --- |
|  | Progranulin (from UniProt P28799) | 1.52 nM | 1.77 nM |
| > 2000 fold | TNFR1ed-GpL (from UniProt P19438 30-211) (receptor) |  |  |
| > 200 fold | TNFR2ed-GpL (from UniProt P20333 23-257) (receptor) |  |  |
